The values below are quoted from earlier work in publication PMC5264612.

For orientation: Kd means a measure of binding affinity in units of concentration.

One series deals with MftC (UniProt P9WJ78).
The target in the next series is MftA (UniProt P9WJ80).
UniProt P9WJ80, sequence (P9WJ80 whole entry): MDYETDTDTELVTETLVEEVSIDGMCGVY

UniProt P9WJ78, sequence (P9WJ78 whole entry): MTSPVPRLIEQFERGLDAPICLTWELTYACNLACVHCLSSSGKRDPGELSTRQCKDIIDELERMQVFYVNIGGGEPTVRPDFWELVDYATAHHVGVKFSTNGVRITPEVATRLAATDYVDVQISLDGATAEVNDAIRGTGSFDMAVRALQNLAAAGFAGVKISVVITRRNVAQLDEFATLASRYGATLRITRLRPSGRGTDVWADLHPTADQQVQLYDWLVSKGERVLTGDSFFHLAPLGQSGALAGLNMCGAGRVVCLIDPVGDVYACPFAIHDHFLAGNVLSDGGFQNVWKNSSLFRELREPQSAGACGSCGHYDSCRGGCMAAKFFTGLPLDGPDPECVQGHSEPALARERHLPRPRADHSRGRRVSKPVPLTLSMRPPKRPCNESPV

MftB (from UniProt A0PM48): the Kd with MftC was 2000 nM; in the series with MftA, 120 nM.
